Tests used:
CP190 = target: T1, CP190 (Drosophila, UniProt Q24478 1-1096); test: fluorescence anisotropy; Hill n=2±0.3; 20 uM ZnSO4; FA/FCS: 30 mM Tris/HCl pH 7.5, 100 mM NaCl, 20 uM ZnSO4, 5 mM mercaptoethanol, 0.01 mg/ml BSA, 0.004% Tween20, 2.5 nM DNA; EMSA: 150 mM NaCl, 30 mM Tris/HCl pH; settings: protein: recombinant; tags: N-term 6xHis; blunt
T1 sequence: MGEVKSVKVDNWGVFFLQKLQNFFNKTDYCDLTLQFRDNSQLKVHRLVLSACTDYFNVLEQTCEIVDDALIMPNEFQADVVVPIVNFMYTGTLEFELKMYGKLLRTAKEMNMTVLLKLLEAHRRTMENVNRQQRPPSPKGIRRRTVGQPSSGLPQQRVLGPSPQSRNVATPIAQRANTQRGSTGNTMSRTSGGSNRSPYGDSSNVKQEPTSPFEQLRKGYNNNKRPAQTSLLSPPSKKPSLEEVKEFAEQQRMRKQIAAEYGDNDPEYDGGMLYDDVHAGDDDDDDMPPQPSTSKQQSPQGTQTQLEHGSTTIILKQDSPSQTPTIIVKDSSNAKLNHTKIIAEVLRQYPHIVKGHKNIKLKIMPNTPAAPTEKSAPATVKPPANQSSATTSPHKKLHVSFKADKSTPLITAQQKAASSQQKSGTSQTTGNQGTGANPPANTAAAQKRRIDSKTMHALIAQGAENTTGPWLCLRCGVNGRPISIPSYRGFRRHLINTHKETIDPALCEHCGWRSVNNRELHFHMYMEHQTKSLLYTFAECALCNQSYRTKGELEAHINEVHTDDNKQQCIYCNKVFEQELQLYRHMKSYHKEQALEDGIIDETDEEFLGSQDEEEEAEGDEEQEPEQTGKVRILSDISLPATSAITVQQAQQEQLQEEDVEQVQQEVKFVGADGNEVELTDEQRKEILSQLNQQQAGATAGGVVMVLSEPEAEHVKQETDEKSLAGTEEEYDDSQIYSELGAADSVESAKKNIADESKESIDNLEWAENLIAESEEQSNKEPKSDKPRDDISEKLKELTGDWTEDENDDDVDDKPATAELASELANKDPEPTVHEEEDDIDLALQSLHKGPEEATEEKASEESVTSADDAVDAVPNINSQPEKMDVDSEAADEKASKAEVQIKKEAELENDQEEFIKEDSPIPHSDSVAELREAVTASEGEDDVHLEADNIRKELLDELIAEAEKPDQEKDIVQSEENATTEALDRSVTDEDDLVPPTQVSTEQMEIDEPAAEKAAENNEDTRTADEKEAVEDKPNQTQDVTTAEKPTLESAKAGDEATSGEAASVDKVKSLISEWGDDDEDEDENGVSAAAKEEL

BEAF32 (BEAF32B) = target: T2, BEAF32 (BEAF32B) (Drosophila, UniProt Q94513 1-282); test: fluorescence anisotropy; single-site fit; 20 uM ZnSO4; FA/FCS: 30 mM Tris/HCl pH 7.5, 100 mM NaCl, 20 uM ZnSO4, 5 mM mercaptoethanol, 0.01 mg/ml BSA, 0.004% Tween20, 2.5 nM DNA; EMSA: 150 mM NaCl, 30 mM Tris/HCl pH; settings: protein: recombinant; tags: N-term MBP; C-term 6xHis; blunt
T2 sequence: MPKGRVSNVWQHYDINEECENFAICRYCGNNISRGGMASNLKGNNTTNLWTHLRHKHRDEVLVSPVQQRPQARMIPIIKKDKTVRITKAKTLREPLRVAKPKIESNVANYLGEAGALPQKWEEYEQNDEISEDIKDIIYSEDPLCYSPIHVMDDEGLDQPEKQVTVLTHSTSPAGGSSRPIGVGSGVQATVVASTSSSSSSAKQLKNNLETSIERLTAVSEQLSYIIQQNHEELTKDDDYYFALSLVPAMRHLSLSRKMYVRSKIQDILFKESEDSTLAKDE

[1] = target: the molecule itself; test: SEC; gel-filtration analysis of CP190-BTB/POZ; conditions not shown
[2] = target: T3, Chromator, full-length, His-tagged (Drosophila, UniProt Q86BS3 1-926); test: fluorescence polarisation; fluorescence anisotropy of CP190-BTB/POZ-Cy5 as reporter of Chromator binding; apparent affinity; settings: both partners purified
T3 construct: Chromator (Chriz), Drosophila; amplified from S2 cell cDNA; also called Chriz; source: E. coli BL21 (DE3)-pLysS, purified
T3 sequence (looked up): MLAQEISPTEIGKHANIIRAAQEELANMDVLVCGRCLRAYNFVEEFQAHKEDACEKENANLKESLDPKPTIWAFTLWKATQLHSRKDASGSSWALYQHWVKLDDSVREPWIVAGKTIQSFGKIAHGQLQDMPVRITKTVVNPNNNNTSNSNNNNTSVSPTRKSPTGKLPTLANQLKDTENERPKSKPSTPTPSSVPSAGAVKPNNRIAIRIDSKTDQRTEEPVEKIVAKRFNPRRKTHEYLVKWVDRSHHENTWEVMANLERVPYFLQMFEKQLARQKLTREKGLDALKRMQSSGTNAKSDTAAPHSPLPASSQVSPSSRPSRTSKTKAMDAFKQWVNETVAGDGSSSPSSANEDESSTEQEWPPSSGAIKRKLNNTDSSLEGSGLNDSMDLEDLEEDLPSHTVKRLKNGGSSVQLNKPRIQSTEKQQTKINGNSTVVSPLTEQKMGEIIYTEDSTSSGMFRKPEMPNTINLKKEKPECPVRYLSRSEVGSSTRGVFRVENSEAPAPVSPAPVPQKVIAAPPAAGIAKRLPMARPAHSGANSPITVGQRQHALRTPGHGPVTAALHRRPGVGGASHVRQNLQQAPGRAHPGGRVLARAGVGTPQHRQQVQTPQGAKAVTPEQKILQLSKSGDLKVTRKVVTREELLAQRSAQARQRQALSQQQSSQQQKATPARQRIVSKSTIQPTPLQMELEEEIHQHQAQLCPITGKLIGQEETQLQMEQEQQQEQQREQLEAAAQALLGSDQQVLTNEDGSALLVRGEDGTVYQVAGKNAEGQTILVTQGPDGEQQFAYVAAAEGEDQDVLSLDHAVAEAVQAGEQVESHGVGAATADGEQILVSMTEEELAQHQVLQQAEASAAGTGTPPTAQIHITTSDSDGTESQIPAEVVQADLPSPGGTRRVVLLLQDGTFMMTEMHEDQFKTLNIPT

B1: DNANS (dsDNA)
DNA 1: GGACAGGTATTGTGCCATACTGACCACATCGTCTTGGTCTATAAGCTCCACGACATCC
DNA 2: GGATGTCGTGGAGCTTATAGACCAAGACGATGTGGTCAGTATGGCACAATACCTGTCC
**Q.** B1 was tested. Which Kd (CP190) did it give?
**A.** Its Kd is 109 ± 5 nM.

**Q.** What about the Kd (BEAF32 (BEAF32B)) of the same binder?
**A.** The Kd was 165 ± 30 nM.

B2: CP190-BTB/POZ (BTB/POZ domain of CP190), His-tagged (domain or fragment, Drosophila)
chain: MGEVKSVKVDNWGVFFLQKLQNFFNKTDYCDLTLQFRDNSQLKVHRLVLSACTDYFNVLEQTCEIVDDALIMPNEFQADVVVPIVNFMYTGTLEFELKMYGKLLRTAKEMNMTVLLKLLEAHRRTMENVNRQQR
notes: N-terminal BTB/POZ domain of CP190, Drosophila; source: E. coli BL21 (DE3)-pLysS, purified
**Q.** For B2, which “stoichiometry N” value [1] is on record?
**A.** Its value is 2.

B3: CP190-BTB/POZ-Cy5 (CP190-BTB/POZ Cy5-labelled on its N-terminal) (domain or fragment, Drosophila)
chain: MGEVKSVKVDNWGVFFLQKLQNFFNKTDYCDLTLQFRDNSQLKVHRLVLSACTDYFNVLEQTCEIVDDALIMPNEFQADVVVPIVNFMYTGTLEFELKMYGKLLRTAKEMNMTVLLKLLEAHRRTMENVNRQQR
modifications: Cy5 on the N-terminal
notes: N-terminal BTB/POZ domain of CP190, Drosophila; same construct as m4, labelled with Cy5; Same protein as m4 with a Cy5 label; source: E. coli BL21 (DE3)-pLysS, purified
**Q.** How did the Kd [2] turn out when B3 was run?
**A.** Its Kd is about 50 nM.
